According to patent US20220396620A1 (Takeda / Millennium, published 2022):

Tests used:
[1] = target: T1, human cannabinoid receptor type 1 (CB1) (human, UniProt P21554 1-472); assay: FACS, titration on CB1 over-expressing CHO cells
T1 construct: DiscoverX cAMP Hunter CHO-K1 CNR1 Gi cells for cAMP and pERK assays; also called huCB1; huCB-1
Protocol: (§1) Antibody binding was tested in a fluorescence activated cell sorting (FACS)-based assay for the ability of the mouse anti-CB1 antibodies to bind parental CHO cells, human CB-1 overexpressing CHO cells and mouse CB-1 overexpressing CHO cells to obtain binding curves and EC50 values. The three cell lines were harvested, washed and dispensed at 1×10⁵ cells per well of a v-bottomed 96-well polycarbonate FACS plates (Corning, Corning, N.Y., Cat. No. 3357) in 50 μl of FACS buffer (1×PBS/2 mM EDTA and 1% FBS (ThermoFisher Scientific, Anaheim, Calif.; Cat. No. 10438-026). Serial dilutions of the antibodies were prepared at 2× concentrations starting at 200 nM and serially diluted 3-fold. The titrated antibodies were added to the plates containing the three different cell lines (parental, human and mouse CB-1 CHO cells) and incubated at 4° C. for 1 hour. The plates were washed 3× with FACS buffer. […] None of the eight functional antibodies tested were mouse cross reactive (FIG. 3).

[2] = target: T1, human cannabinoid receptor type 1 (CB1); assay: cell-based or functional assay
mouse CB-1 = target: T2, mouse CB-1 (mouse, UniProt P47746 1-473); assay: flow cytometry on CHO-Mouse CB1 cells, 3-fold antibody titration from 200 nM
T2 construct: whole, on cells; also called moCB1; moCB1-CHO cells
Protocol: as §1

[3] = target: T1, human cannabinoid receptor type 1 (CB1); assay: flow cytometry, single point at 30 ug/mL antibody, signal on CHO-huCB-1 cells relative to CHO parental cells

T1 sequence (P21554 whole entry): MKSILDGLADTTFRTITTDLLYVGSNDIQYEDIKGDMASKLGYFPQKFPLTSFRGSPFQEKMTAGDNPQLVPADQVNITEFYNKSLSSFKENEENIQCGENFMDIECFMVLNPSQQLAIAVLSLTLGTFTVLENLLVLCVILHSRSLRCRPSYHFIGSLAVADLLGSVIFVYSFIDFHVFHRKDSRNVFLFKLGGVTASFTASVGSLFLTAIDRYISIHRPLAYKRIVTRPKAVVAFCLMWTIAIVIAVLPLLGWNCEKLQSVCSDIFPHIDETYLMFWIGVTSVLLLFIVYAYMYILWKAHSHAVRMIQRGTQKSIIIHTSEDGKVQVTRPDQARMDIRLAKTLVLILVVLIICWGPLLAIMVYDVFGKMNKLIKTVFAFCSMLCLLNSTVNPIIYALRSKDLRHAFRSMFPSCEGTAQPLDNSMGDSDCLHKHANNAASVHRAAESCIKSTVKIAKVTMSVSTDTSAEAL
T2 sequence (P47746 whole entry): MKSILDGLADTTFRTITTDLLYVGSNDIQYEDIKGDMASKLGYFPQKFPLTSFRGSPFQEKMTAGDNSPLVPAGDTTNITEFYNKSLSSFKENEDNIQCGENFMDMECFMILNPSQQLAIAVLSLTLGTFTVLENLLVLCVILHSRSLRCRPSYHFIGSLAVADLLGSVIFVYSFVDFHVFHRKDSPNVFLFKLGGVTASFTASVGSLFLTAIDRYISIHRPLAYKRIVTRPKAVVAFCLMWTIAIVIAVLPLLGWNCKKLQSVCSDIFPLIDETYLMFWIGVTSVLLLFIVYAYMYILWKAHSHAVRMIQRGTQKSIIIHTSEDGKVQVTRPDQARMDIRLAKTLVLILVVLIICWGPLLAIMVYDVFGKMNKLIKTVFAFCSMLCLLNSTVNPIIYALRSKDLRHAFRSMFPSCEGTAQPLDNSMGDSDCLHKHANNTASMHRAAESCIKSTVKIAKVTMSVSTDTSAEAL

Row | Binder | EC50 [1] [nM] | Mean P-ERK (% inhibition) [2] [% inhibition] | Mean cAMP (% Amgen) [2] [% Amgen] | P-ERK IC50 (nM) Data Set 1 [2] [nM] | P-ERK IC50 (nM) Data Set 2 [2] [nM] | cAMP EC50 (nM) Data Set 1 [2] [nM] | cAMP EC50 (nM) Data Set 2 [2] [nM] | cAMP EC50 (nM) Data Set 3 [2] [nM] | binding result (mouse CB-1) | binding result [3]
1 | M2 mouse anti-huCB-1 antibody (antibody, V domains shown) VH: EVQLQQSGPELVKPGTSVKISCKASGYTFTDYNMHWVKLGKSLEWIGYFYPDDGGSGYNQKFKGKATLTIDKSSSTAYMELHSLTSEDSAVYYCARGYGNSWGTYWGQGTLVTVSA VL: EIVLTQSPTTMAASPGEKITITCSASSRISSNYLYWYQQKPGFSPKLLIYRTSNLASGVPARFSGSGSGTSYSLTIGTMEAEDVATYYCQQGSSIPYTFGGGTKLEIK | 34.7 | 59 | 49 | 219 | 211 | 380 | 340 | 270 | – | –
2 | M6 mouse anti-huCB-1 antibody (antibody, V domains shown) VH: EVQLQQSGPELVKPGASVKISCKASGYTFTDYNLHWVKHGKSLEWIGYIYPYDGDTGYKQKFKGKATLTADKSSSTAYMELRSLTCEDSAVYYCARGYGNSWGAYWGQGTLVTVSA VL: EIVLTQSPTTMAASPGEKITITCSATSSISSNYLHWYQQKPGFSPKLLIYRTSNLASGVPARFSGSGSGTSYSLTIGTMEAEDVATYYCQQGSSIPYTFGGGTKLEIK | 43.5 | 42 | 21 | 144 | 300 | 310 | 290 | 640 | – | –
3 | M4 mouse anti-huCB-1 antibody (antibody, V domains shown) VH: QVQLQQSGAELVRPGSSVKISCKASGYEFNYYWMNWVKQRPGQGLEWIGQIYPGDGDINYNGKFKGKATLTSDKSSSTVYMQLSSLTSEDSAVYFCSRSKGNPFAYWGQGTLVTVSA VL: DIQMTQTTSSLSASLGDSVTISCRASQGIRNYLNWYQQKPDGTVKLLIYYTSRLHSGVPPRFSGSGSGTDYSLTISNLEQEDLATYFCQQGNTLPYTFGGGTKLEIK | 19.2 | 70 | 41 | 97 | 890 | 180 | 320 | 430 | no binding (tested: 200 nM) | –
4 | M1 mouse anti-huCB-1 antibody (antibody, V domains shown) VH: QVQLQQSGAELVRPGVSVKISCKGSGYTFTDHALHWVKQSQARSLEWIGIISTYYGDATYNQKFKGKATMTVDKSSSTAYMELARLTSEDSAFYYCARGGLYYGTNYRAMDYWGQGTSVTVSS VL: DIVMTQSQKFMSTSVGDRVSVTCKASQNVGSNVAWYQQKPGQSPKALIYSASYRYSGVPDRFTGSGSGTDFTLTISNVQSEDLAEYFCQQYNNYPFTFGSGTKLEIK | 15.7 | 68 | 75 | 163 | 165 | 43 | 170 | 150 | no binding (tested: 200 nM) | –
5 | M7-H8 humanized anti-CB1 antibody (antibody, human IgG1, kappa, L234A L235A, V domains shown) VH: QVQLVQSGAEVKKPGASVKLSCKASSYTFTRYWMNWVRQAPGQGLEWIGMIDPYDSETHYNQKFQGRATLTVDTSTSTAYMELSSLRSEDTAVYFCARSQPRYYAMDYWGQGTTVTVSS VL: DIQMTQSPSSLSASLGDRVTLTCRASQEISGFLSWLQLKPGKTIKRLIYAASSLDSGVPSRFSGSWSGTDYTLTISSLQPEDFADYYCLQYSSYPYTFGGGTKLEIKR | – | – | – | – | – | – | – | – | – | binds
6 | M7-H13 humanized anti-CB1 antibody (antibody, human IgG1, kappa, L234A L235A, V domains shown) VH: QVQLVQSGAEVKKPGASVKLSCKASSYTFTRYWMNWVRQAPGQGLEWIGMIDPYDSETHYNQKFQGRATLTVDTSTSTAYMELSSLRSEDTAVYFCARSQPRYYAMDYWGQGTTVTVSS VL: DIQMTQSPSSLSASVGDRVTLTCRASQEISGFLSWLQLKPGKAIKRLIYAASSLDSGVPSRFSGSWSGTDYTLTISSLQPEDFADYYCLQYSSYPYTFGGGTKLEIKR | – | – | – | – | – | – | – | – | – | binds
7 | M7-H11 humanized anti-CB1 antibody (antibody, human IgG1, kappa, L234A L235A, V domains shown) VH: QVQLVQSGAEVKKPGASVKVSCKASSYTFTRYWMNWVRQAPGQGLEWMGIIDPYDSETSYAQKFQGRVTMTRDTSTSTVYMELSSLRSEDTAVYYCARSQPRYYAMDYWGQGTTVTVSS VL: DIQMTQSPSSLSASLGDRVTLTCRASQEISGFLSWLQLKPGKTIKRLIYAASSLDSGVPSRFSGSWSGTDYTLTISSLQPEDFADYYCLQYSSYPYTFGGGTKLEIKR | – | – | – | – | – | – | – | – | – | binds
8 | M7-H14 humanized anti-CB1 antibody (antibody, human IgG1, kappa, L234A L235A, V domains shown) VH: QVQLVQSGAEVKKPGASVKVSCKASSYTFTRYWMNWVRQAPGQGLEWMGMIDPYDSETHYNQKFQGRVTMTRDTSTSTVYMELSSLRSEDTAVYYCARSQPRYYAMDYWGQGTTVTVSS VL: DIQMTQSPSSLSASVGDRVTLTCRASQEISGFLSWLQLKPGKAIKRLIYAASSLDSGVPSRFSGSWSGTDYTLTISSLQPEDFADYYCLQYSSYPYTFGGGTKLEIKR | – | – | – | – | – | – | – | – | – | binds
9 | M7-H12 humanized anti-CB1 antibody (antibody, human IgG1, kappa, L234A L235A) heavy: not shown light: DIQMTQSPSSLSASVGDRVTLTCRASQEISGFLSWLQLKPGKAIKRLIYAASSLDSGVPSRFSGSWSGTDYTLTISSLQPEDFADYYCLQYSSYPYTFGGGTKLEIKRTVAAPSVFIFPPSDEQLKSGTASVVCLLNNFYPREAKVQWKVDNALQSGNSQESVTEQDSKDSTYSLSSTLTLSKADYEKHKVYACEVTHQGLSSPVTKSFNRGEC | – | – | – | – | – | – | – | – | – | binds
10 | M7-H10 humanized anti-CB1 antibody (antibody, human IgG1, kappa, L234A L235A, V domains shown) VH: QVQLVQSGAEVKKPGASVKVSCKASSYTFTRYWMNWVKQRPGEGLEWMGMIDPYDSETHYNQKFQGKVTMTVDKSSSTVYMELSSLRSEDTAVYFCARSQPRYYAMDYWGQGTTVTVSS VL: DIQMTQSPSSLSASLGDRVTLTCRASQEISGFLSWLQLKPGKTIKRLIYAASSLDSGVPSRFSGSWSGTDYTLTISSLQPEDFADYYCLQYSSYPYTFGGGTKLEIKR | – | – | – | – | – | – | – | – | – | binds
11 | M7-H9 humanized anti-CB1 antibody (antibody, human IgG1, kappa, L234A L235A, V domains shown) VH: QVQLVQSGAEVKKPGASVKVSCKASSYTFTRYWMNWVRQAPGQGLEWMGMIDPYDSETHYNQKFQGRVTMTRDTSTSTVYMELSSLRSEDTAVYYCARSQPRYYAMDYWGQGTTVTVSS VL: DIQMTQSPSSLSASLGDRVTLTCRASQEISGFLSWLQLKPGKTIKRLIYAASSLDSGVPSRFSGSWSGTDYTLTISSLQPEDFADYYCLQYSSYPYTFGGGTKLEIKR | – | – | – | – | – | – | – | – | – | binds
12 | M7-H16 humanized anti-CB1 antibody (antibody, human IgG1, kappa, L234A L235A, V domains shown) VH: QVQLVQSGAEVKKPGASVKVSCKASSYTFTRYWMNWVRQAPGQGLEWMGIIDPYDSETSYAQKFQGRVTMTRDTSTSTVYMELSSLRSEDTAVYYCARSQPRYYAMDYWGQGTTVTVSS VL: DIQMTQSPSSLSASVGDRVTLTCRASQEISGFLSWLQLKPGKAIKRLIYAASSLDSGVPSRFSGSWSGTDYTLTISSLQPEDFADYYCLQYSSYPYTFGGGTKLEIKR | – | – | – | – | – | – | – | – | – | binds
13 | M7-H15 humanized anti-CB1 antibody (antibody, human IgG1, kappa, L234A L235A, V domains shown) VH: QVQLVQSGAEVKKPGASVKVSCKASSYTFTRYWMNWVKQRPGEGLEWMGMIDPYDSETHYNQKFQGKVTMTVDKSSSTVYMELSSLRSEDTAVYFCARSQPRYYAMDYWGQGTTVTVSS VL: DIQMTQSPSSLSASVGDRVTLTCRASQEISGFLSWLQLKPGKAIKRLIYAASSLDSGVPSRFSGSWSGTDYTLTISSLQPEDFADYYCLQYSSYPYTFGGGTKLEIKR | – | – | – | – | – | – | – | – | – | binds
14 | M3 mouse anti-huCB-1 antibody (antibody, V domains shown) VH: QVQLQQSGPELVRPGVSVKISCKGSGYEFTDYALHWVKQSHAETLEWIGLITTYYGDTNYNQKFKGKATMTVDKSSSTAYMELARLTSEDSAIYYCARGGYYYGTDYRYFDVWGAGTTVTVSS VL: DILLTQSPAILSVSPGERVSFSCRASQSIGTNIHWYQQRPNGSPRLLIKYASESISGIPSRFSGSGSGSDFTLSINSVESEDIADYYCQQSITWPLTFGAGTKLELK | 61.6 | 59 | 71 | 296 | 534 | 290 | 290 | 330 | no binding (tested: 200 nM) | –
15 | M5 mouse anti-huCB-1 antibody (antibody, V domains shown, The humanized M5-H1 and M5-H2 carry the CDRs of the un-numbered VL, so that one may be the functional light chain) VH: QVHLQQSGAELVRPGSSVKISCKASGYEFSYYWMNWVKQRPGQGHEWIGQIYPGDGDTNYNGKFKGKATLTADKSSSTAYMQLSSLTSEDSAVYFCARGREAAWFAYWGQGTLVTVSA VL: DIVLAQSPASLAVSLGQRATISCRASQSVSSFRYSYLHWYQQKPGQPPRLLIKYASNLESGVPARFSGSGSGTDFTLNIHPVEEEDTATYFCQHSWEIPFTFGSGTKLEIKR | 20.2 | 101 | 61 | 191 | 50 | 91 | 170 | 170 | no binding (tested: 200 nM) | –
